Test in all cases: Luminex, supernatant
Test [1] deals with SARS-CoV-2 Spike Protein (RBD)(R319-F541).hFc (SARS-CoV-2).
In test [2] the target is SARS-CoV-2 Spike Protein (RBD)(R319-F541).mFc (SARS-CoV-2).
Test [3] deals with T1, MERS-CoV Spike Protein S2 (aa 726-1296, His Tag) (Sino 40070-[change]) (MERS-CoV, UniProt K9N5Q8 726-1296).
T1 sequence: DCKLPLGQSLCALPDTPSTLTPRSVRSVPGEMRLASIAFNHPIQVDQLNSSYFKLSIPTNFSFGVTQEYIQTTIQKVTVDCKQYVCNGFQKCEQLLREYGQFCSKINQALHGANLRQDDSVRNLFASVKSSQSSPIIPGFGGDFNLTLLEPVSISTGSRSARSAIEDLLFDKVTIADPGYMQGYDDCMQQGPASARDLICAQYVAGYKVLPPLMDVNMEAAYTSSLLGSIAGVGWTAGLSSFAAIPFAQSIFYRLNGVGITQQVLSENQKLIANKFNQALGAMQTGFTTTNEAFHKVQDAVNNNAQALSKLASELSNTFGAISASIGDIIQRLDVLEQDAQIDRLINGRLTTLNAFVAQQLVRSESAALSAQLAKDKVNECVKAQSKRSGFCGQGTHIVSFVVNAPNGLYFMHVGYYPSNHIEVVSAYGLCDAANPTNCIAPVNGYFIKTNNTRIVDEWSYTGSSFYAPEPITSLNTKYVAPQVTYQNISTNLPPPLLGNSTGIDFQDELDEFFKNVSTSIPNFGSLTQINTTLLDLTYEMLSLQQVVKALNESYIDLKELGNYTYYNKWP

The target in test [4] is Human SARS Coronavirus Spike S1 Subunit Protein (His Tag) (Sino 40150-V08B1) (Human SARS Coronavirus, UniProt P59594 14-667).
The target of test [5] is T2, MERS-CoV (NCoV/Novel coronavirus) Spike Protein fragment (RBD, aa 367-606, His Tag) (Sino 40071-V08B1) (MERS-CoV, UniProt K9N5Q8 367-606).
T2 sequence: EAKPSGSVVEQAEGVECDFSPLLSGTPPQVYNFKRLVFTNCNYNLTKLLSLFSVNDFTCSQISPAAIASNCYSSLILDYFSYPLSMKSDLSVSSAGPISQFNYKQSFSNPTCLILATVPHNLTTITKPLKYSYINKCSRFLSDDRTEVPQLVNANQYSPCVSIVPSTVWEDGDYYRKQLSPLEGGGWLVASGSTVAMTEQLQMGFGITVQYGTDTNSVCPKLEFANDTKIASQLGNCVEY

The target of test [6] is T3, MERS-CoV Spike Protein (ECD, aa 1-1297, His Tag) (Sino 40069-[change]) (MERS-CoV, UniProt K9N5Q8 18-1297).
T3 sequence: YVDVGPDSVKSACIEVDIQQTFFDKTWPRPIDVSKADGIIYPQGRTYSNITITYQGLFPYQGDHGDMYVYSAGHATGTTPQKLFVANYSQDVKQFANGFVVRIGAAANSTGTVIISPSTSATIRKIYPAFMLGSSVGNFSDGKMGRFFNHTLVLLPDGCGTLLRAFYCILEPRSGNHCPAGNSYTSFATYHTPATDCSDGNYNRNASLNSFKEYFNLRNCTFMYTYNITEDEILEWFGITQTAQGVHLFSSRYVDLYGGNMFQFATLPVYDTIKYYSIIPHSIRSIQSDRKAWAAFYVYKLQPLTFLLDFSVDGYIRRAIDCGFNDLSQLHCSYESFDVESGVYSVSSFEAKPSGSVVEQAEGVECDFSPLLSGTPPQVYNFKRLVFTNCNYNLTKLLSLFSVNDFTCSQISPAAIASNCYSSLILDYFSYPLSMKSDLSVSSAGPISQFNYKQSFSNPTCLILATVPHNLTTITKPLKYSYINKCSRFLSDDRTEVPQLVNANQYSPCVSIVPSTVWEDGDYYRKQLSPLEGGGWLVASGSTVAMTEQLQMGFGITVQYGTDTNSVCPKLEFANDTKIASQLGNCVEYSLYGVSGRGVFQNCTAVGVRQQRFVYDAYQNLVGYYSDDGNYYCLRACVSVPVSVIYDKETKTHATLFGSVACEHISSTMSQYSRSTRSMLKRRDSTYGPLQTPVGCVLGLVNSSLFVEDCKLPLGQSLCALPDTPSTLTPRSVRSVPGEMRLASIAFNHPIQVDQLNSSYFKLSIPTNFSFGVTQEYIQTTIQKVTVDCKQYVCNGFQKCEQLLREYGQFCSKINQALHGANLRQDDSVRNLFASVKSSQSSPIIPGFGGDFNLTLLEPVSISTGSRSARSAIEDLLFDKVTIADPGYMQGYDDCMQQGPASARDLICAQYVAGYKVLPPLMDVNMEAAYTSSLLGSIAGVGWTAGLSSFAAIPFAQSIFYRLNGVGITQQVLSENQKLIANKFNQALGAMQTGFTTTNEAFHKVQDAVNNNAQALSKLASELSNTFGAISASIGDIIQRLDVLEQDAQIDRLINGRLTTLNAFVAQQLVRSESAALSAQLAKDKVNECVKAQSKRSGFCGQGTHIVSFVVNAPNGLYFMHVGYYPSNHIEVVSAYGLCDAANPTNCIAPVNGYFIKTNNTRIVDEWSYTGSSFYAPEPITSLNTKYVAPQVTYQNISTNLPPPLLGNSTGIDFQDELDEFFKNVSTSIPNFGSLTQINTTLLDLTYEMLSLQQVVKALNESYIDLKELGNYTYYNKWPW

For test [7], the target named is T4, MERS-CoV (NCoV/Novel coronavirus) Spike Protein S1 Protein (aa 1-725, His Tag) (Sino 40069-V08B1) (MERS-CoV, UniProt K9N5Q8 18-725).
T4 sequence: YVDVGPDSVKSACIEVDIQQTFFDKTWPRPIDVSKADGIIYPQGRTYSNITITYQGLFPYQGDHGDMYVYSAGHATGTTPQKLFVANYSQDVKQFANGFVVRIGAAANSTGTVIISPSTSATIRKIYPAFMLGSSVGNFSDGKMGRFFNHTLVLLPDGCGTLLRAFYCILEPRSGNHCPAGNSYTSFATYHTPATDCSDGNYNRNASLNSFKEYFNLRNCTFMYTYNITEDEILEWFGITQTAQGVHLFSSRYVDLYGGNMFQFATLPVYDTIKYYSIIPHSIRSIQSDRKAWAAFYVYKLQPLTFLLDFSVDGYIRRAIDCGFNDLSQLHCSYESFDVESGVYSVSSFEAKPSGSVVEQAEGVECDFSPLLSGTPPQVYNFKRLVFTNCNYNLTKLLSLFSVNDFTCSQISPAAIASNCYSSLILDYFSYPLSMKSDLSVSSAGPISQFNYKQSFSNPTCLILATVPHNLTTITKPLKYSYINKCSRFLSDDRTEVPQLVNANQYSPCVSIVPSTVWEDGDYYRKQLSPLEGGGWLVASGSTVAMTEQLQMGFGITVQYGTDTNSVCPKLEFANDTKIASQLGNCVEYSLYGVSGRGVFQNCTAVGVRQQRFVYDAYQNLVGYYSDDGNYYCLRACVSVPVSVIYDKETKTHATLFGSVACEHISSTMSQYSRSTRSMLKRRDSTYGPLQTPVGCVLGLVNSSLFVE

B1: mAb10921 (antibody, V domains shown)
VH: EVQLVESGGGLVQPGGSLRLSCAASGITVSSNYMSWVRQAPGKGLEWVSVIYSGGSTFYADSVKGRFTISRHNSKNTLYLQMNSLRAEDTAVYYCARERNFDAFDIWGQGTMVTVSS
VL: DIQMTQSPSSVSASVGDRVTITCRASQGISSWLAWYQQKPGKAPKLLIYAASSLQSGVPSRFSGSGSGTDFTLTISSLQPEDFATYYCQQANSFPLFTFGPGTKVDIKR
Consider B1, for which the MFI was 22300 MFI in test [1]; 19400 MFI in test [2]; 19 MFI in test [3]; 19 MFI in test [4]; 23 MFI in test [5]; 19 MFI in test [6].

B2: mAb10914 (antibody, V domains shown)
VH: EVQLVESGGGLVQPGGSLRLSCAASGLIVSRNYMIWVRQAPGKGLEWVSVIYSGGSTFYADSVKGRFTISRHNSKNTLYLQMNSLRAEDTAVYYCARDLGTGGMDVWGQGTTVTVSS
VL: DIQLTQSPSFLSASVGDRVTITCWASQGISSYLAWYQQKPGKAPKLLIYAASTLQSGVPSRFSGSGSGTEFTLTISSLQPEDFATYYCQQLNSYPLTFGGGTKVEIKR
As for B2, the MFI stood at 30500 MFI in test [1]; 23 MFI in test [7]; 30700 MFI in test [2]; 28 MFI in test [3]; 22 MFI in test [4]; 31 MFI in test [5]. This molecule came in with an MFI in test [6] of 19 MFI.

B3: mAb10936 (antibody, V domains shown)
VH: QVQLVESGGGVVQPGRSLRLSCAASGFTFRNYGMHWVRQAPGKGLEWVSVIWYDGSNRYYADSVKGRFTISRDTSKNTLYLQMNSLRAEDTAVYYCARDPPITGTTGGDAFDIWGQGTMVTVSS
VL: not shown
B3: the MFI in test [1] was found to be 33900 MFI; in test [7] it was 20 MFI; in test [2], 33700 MFI; in test [3], 21 MFI; in test [4], 20 MFI; in test [5], 29 MFI. Moreover, in test [6], the MFI turned out to be 19 MFI.

B4: mAb10934 (antibody, V domains shown)
VH: not shown
VL: DIQMTQSPSSLSASVGDRVTITCQASQDIWNYINWYQQKPGKAPKLLIYDASNLKTGVPSRFSGSGSGTDFTFTISSLQPEDIATYYCQQHDDLPPTFGQGTKVEIKR
With B4, the MFI stood at 35800 MFI in test [1]; 20 MFI in test [7]; 34300 MFI in test [2]; 24 MFI in test [5]; 15 MFI in test [6].

B5: mAb10935 (antibody, V domains shown)
VH: EVQLVESGGGLVQPGGSLRLSCAASGFTVSSNYMSWVRQAPGKGLEWVSLIYSGGSTYYADSVKGRFTISRHNSKNTLYLQMNSLRSEDTAVYYCARVPLGDYYYGMDVWGQGTTVTVSS
VL: DIQMTQSPSSLSASVGDRVTITCQASQDINKYLNWYQQKPGKAPKLLIYDASNLETGVPSRFSGSGSGTDFTFTISSLQPEDIATYYCQQSDNLPLTFGGGTKVEIKR
Regarding B5, the MFI was 35600 MFI in test [1]; 35900 MFI in test [2]; 18 MFI in test [3]; 21 MFI in test [4]; 25 MFI in test [5]; 15 MFI in test [6].

B6: mAb10985 (antibody, V domains shown)
VH: EVQLVESGGGLVQPGRSLRLSCAASGFTFDDYAMHWVRQAPGKGLEWVSGISWNRGSIGYADSVKGRFTISRDNAKNSLYLQMSSLRAEDTALYYCAKDGERWDSVVVPSARNGMDVWGQGTTVTVSS
VL: QSVLTQPPSVSGAPGQRVTISCTGSSSNIGAGYDVHWYQQLPGTAPKLLIYGNSNRPSGVPDRFSGSKSGTSASLAITGLQAEDEADYYCQSYDSSLSGSYVFGTGTKVTVLG
With B6, the MFI worked out at 31100 MFI in test [1]; 22 MFI in test [7]; 29400 MFI in test [2]; 28 MFI in test [3]; 22700 MFI in test [4]; 31 MFI in test [5]. The molecule also gave an MFI in test [6] of 18 MFI.

B7: mAb10986 (antibody, V domains shown)
VH: EVQLVESGGGLVQPGGSLRLSCAASEFTVSSNYMSWVRQAPGKGLEWVSVIYSGGSTFYADSVKGRFTISRDNSKNTLYLQMNSLRAEDTAVYYCARALPYGDLHFDYWGQGTLVTVSS
VL: QSVLTQPPSVSGAPGQRVTISCTGSSSNIGTGYDVHWYQQLPGTAPKLLIYGNTNRPSGVPDRFSGSKSGTSASLAITGLQAEDEADYYCQSYDSSLSDSYVFGTGTKVTVLG
As for B7, the MFI in test [7] was determined as 20 MFI; in test [2], 28400 MFI; in test [3] it was 19 MFI; in test [4], 21 MFI; in test [5], 27 MFI; in test [6], 15 MFI.

B8: mAb10913 (antibody, V domains shown)
VH: EVQLVESGGGLVQPGGSLRLSCAASGFTFRNYEMNWVRQAPGKGLEWVSYITSSGSTMYYADSVKGRFTISRDNAKNSLYLQMNSLRAEDTAVYYCARDGFYYYYAMDVWGQGTTVTVSS
VL: QSVLTQPPSVSAAPGQKVTISCSGSSSNIGNNYVSWYQQLPGTAPKLLIYDNNKRPSGIPDRFSGSKSGTSATLGITGLQTGDEADYYCGTWDSSLSVGRVFGTGTKVTVLG
Turning to B8, the MFI in test [1] was 31900 MFI; in test [7], 26 MFI; in test [2], 33000 MFI; in test [3] it was 26 MFI; in test [4] it was 21 MFI; in test [5], 34 MFI. In test [6], the MFI was 20 MFI.

For the origin of these results see patent publication US20240043504A1 (published 2024).
